# PMC6007875 (Nature, 2018)
# Substitutions are numbered along the chain they refer to. Numbers in names are those of the source.
# T1: shed extracellular domain of αKlotho (αKlotho^ecto) (human, UniProt Q9UEF7 34-981)
# T1 sequence (looked up): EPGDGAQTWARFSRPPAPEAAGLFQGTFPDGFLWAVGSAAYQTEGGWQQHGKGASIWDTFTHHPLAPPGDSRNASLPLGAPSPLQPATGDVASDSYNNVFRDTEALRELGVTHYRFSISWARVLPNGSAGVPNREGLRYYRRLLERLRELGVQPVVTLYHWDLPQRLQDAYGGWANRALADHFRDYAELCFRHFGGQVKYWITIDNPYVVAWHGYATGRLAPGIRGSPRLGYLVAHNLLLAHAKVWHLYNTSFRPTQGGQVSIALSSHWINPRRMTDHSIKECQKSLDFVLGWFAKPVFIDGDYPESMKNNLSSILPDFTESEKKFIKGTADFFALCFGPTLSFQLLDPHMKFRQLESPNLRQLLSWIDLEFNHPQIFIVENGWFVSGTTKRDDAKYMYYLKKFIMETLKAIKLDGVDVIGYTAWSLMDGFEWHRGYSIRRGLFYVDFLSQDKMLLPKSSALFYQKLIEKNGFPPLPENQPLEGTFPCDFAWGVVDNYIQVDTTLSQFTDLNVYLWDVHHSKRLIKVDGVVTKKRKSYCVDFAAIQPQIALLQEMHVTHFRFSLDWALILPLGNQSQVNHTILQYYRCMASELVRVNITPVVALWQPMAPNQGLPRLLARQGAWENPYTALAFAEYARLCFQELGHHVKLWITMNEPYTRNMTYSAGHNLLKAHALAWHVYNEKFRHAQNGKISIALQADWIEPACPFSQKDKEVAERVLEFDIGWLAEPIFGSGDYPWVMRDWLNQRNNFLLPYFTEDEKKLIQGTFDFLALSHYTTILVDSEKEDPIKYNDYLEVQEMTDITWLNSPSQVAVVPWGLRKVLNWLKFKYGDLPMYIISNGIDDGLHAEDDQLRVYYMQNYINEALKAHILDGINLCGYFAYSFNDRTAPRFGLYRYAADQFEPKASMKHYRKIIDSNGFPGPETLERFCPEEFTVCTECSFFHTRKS
# B1: fibroblast growth factor 23 (FGF23) (ligand, human, UniProt Q9GZV9 25-251, looked up)
# chain: YPNASPLLGSSWGGLIHLYTATARNSYHLQIHKNGHVDGAPHQTIYSALMIRSEDAGFVVITGVMSRRYLCMDFRGNIFGSHYFDPENCRFQHQTLENGYDVYHSPQYHFLVSLGRAKRAFLPGMNPPPYSQFLSRRNEIPLIHFNTPIPRRHTRSAEDDSERDPLNVLKPRARMTPAPASCSQELPSAEDNSPMASDPLGVVRGGRVNTHAGGTGPEGCRPFAKFI
# B2: FGF23^ΔSRBS (M149A/N150A/P151A) (ligand, human, UniProt Q9GZV9 25-251, looked up)
# chain: B1 chain with M125A, N126A, P127A
# B3: FGF23^ΔHBS (R140A/R143A) (ligand, human, UniProt Q9GZV9 25-251, looked up)
# chain: B1 chain with R116A, R119A
# B4: FGFR1c ligand-binding domain (FGFR1c^ecto) (domain or fragment, human)
# chain: DNTKPNRMPVAPYWTSPEKMEKKLHAVPAAKTVKFKCPSSGTPNPTLRWLKNGKEFKPDHRIGGYKVRYATWSIIMDSVVPSDKGNYTCIVENEYGSINHTYQLDVVERSPHRPILQAGLPANKTVALGSNVEFMCKVYSDPQPHIQWLKHIEVNGSKIGPDNLPYVQILKTAGVNTTDKEMEVLHLRNVSFEDAGEYTCLAGNSIGLSHHSAWLTVLEALEER
# B5: FGFR1c^ΔHBS (K160Q/K163Q), ecto (domain or fragment, human)
# chain: B4 chain with K19Q, K22Q
# B6: FGFR1c^ΔRRBS (A171D), ecto (domain or fragment, human)
# chain: B4 chain with A30D
# B7: FGFR1c^ΔHBS’ (K207Q/R209Q), ecto (domain or fragment, human)
# chain: B4 chain with K66Q, R68Q
# B8: FGFR1c^ΔSLBS (I203E), ecto (domain or fragment, human)
# chain: B4 chain with I62E
# B9: FGFR1c^ΔSLBS’ (V221D), ecto (domain or fragment, human)
# chain: B4 chain with V80D
# Legend:
# FGFR1c (Homo sapiens) = FGFR1c (Homo sapiens) (UniProt P11362); details: cited from earlier work
# FGFR1c (Homo sapiens), sequence (P11362 22-376): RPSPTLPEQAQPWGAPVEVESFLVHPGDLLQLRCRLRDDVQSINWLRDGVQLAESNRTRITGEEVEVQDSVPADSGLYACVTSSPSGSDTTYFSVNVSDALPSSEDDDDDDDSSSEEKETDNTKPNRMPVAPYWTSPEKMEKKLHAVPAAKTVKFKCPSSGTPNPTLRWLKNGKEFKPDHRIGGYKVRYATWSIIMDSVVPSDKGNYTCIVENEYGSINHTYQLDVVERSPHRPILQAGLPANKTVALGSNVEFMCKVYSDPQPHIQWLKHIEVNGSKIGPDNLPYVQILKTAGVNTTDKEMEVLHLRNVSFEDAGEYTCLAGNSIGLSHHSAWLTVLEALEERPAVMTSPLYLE
# [1] = target: T1, shed extracellular domain of αKlotho …; experiment: SEC-MALS
# [2] = target: B4; experiment: SEC-MALS
# [3] = target: B2; experiment: SEC-MALS
# FGF23^ΔHBS (R140A/R143A) = target: B3; experiment: SEC-MALS
binding result [1],Molecule,further results
–,αKlotho (from UniProt Q9UEF7),Kd (FGFR1c (Homo sapiens)): 72 nM
–,B1,stoichiometry N [1]: 1; stoichiometry N [2]: 1
binds,B2,–
binds,B3,–
–,B4,binding result [3]: binds; stoichiometry N [1]: 1; binding result (FGF23^ΔHBS (R140A/R143A)): binds
binds,B5,–
binds,B6,–
binds,B7,–
binds,B8,–
binds,B9,–
